Reference: US20230406950A1 (LYVGEN BIOPHARMA, published 2023)

What was measured:
[1] = molecular target: T1, human CD137 expressed on cells (human, UniProt Q07011 24-255); test: flow cytometry (FACS), MFI, CHO cells expressing human CD137
T1 construct: whole, on cells; also called 4-1BB; TNFRSF9
Method: (§1) Exemplary anti-PD-1/CD137 bi-specific antibodies were analyzed by FACS for their binding properties to human PD-1 and/or human CD137 expressed on CHO cells. Briefly, cultured cells were harvested, counted and cell viability was evaluated using the Trypan Blue exclusion method. Viable cells were then adjusted to 2×10⁶ cells per mL in PBS containing 2% BSA. 100 μL of this cell suspension were further aliquoted per well into a V-bottom 96-well plate. […] After incubation for 2 hours at 4° C., cells were centrifuged (3 min, 1000× g), washed with 250 μL/well BSA-containing FACS Stain Buffer, resuspended and incubated for an additional 1 hour at 4° C. with 100 μL/well fluorochrome-conjugated anti-IgG antibody for detection of the bisepecific antibody. Cells were then washed with 250 μL/well BSA-containing FACS Stain Buffer, resuspended in 100 μL/well FACS Stain Buffer, acquired and analyzed using a FACS machine. Binding of the bispecific antibodies to human PD-1 or human CD137 expressing CHO cells were evaluated and the mean fluorescence intensity is plotted in histograms or dot plots.

[2] = molecular target: T2, human CD40 expressed on CHO cells (human, UniProt P25942 21-277); test: FACS on CHO cells expressing human CD40 (MFI)
T2 construct: whole, on cells
Method: as §1, with “Anti-CD40/CD137” for “Exemplary anti-PD-1/CD137”, “CD40” for “PD-1”, “1000×g),” for “1000× g),”

[3] = molecular target: T3, human PD-1 expressed on cells (human, UniProt Q15116 25-288); test: flow cytometry (FACS), MFI, CHO cells expressing human PD-1
T3 construct: whole, on cells; also called human PD-1 over-expressed on the CHO cells; Jurkat/NFkB-Luci/PD-1 cells
Method: as §1

T1 sequence (Q07011 24-255): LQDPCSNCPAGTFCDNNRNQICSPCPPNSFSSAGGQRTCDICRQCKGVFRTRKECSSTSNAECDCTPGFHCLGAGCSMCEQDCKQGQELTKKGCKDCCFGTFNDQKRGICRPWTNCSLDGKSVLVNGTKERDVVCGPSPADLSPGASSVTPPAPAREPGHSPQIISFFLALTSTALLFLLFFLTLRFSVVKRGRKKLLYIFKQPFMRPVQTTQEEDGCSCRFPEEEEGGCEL
T2 sequence (P25942 21-277): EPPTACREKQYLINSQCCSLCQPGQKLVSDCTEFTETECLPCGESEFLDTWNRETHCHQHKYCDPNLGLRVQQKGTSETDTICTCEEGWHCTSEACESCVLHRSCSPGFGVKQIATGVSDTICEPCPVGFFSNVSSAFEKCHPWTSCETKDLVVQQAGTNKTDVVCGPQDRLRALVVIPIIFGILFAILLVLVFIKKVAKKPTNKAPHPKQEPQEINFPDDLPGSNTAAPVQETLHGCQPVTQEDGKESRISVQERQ
T3 sequence (Q15116 25-288): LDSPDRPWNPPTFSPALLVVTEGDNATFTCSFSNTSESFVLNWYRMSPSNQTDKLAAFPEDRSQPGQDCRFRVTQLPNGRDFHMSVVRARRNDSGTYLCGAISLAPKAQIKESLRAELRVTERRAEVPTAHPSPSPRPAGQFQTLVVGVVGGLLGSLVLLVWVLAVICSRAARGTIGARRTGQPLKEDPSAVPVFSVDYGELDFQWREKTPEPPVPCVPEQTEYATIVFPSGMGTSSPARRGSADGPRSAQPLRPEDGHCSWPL

B1: Ly461 (bispecific antibody, human IgG1, kappa)
heavy: QVQLVQSGAEVKKPGASVKVSCKASGYTFAGFEMHWVRQAPGQGLEWMGAIDPKTGGTDYNQKFKDRVTMTRDTSISTAYMELSRLRSDDTAVYYCARDLGYFDVWGQGTLVTVSSASTKGPSVFPLAPSSKSTSGGTAALGCLVKDYFPEPVTVSWNSGALTSGVHTFPAVLQSSGLYSLSSVVTVPSSSLGTQTYICNVNHKPSNTKVDKKVEPKSCDKTHTCPPCPAPELLGPSVFLFPPKPKDTLMISRTPEVTCVVVDVSHEDPEVKFNWYVDGVEVHNAKTKPREEQYNSTYRVVSVLTVLHQDWLNGKEYKCKVSNKALPAPIEKTISKAKGQPREPQVYTLPPSREEMTKNQVSLTCLVKGFYPSDIAVEWESNGQPENNYKTTPPVLDSDGSFFLYSKLTVDKSRWQQGNVFSCSVMHEALHNHYTQKSLSLSPGGGGGSGGGGSGGGGSGGGGSNIQMTQSPSSLSASVGDRVTITCKAGQNVNNYLAWYQQKPGKAPKVLIFNANSLQTGVPSRFSGSGSGTDFTLTISSLQPEDFATYYCQQYNSWPTFGGGTKVEIKRTVAAPSVFIFPPSDEQLKSGTASVVCLLNNFYPREAKVQWKVDNALQSGNSQESVTEQDSKDSTYSLSSTLTLSKADYEKHKVYACEVTHQGLSSPVTKSFNRGEC
light: DIQMTQSPSSLSASVGDRVTITCRASQDIRSNLNWYQQKPGGAVKLLIYYTSRLHSGVPSRFSGSGSGTDYTLTISSLQPEDFATYFCQQSEKLPRTFGGGTKVEIRRTVAAPSVFIFPPSDEQLKSGTASVVCLLNNFYPREAKVQWKVDNALQSGNSQESVTEQDSKDSTYSLSSTLTLSKADYEKHKVYACEVTHQGLSSPVTKSFNRGEC
chain: QVTLKESGPALVKPTQTLTLTCTFSGFSLSTSGTCVSWIRQPPGKALEWLATICWEDSKGYNPSLKSRLTISKDTSKNQAVLTMTNMDPVDTATYYCARREDSGYFWFPYWGQGTLVTVSSASTKGPSVFPLAPSSKSTSGGTAALGCLVKDYFPEPVTVSWNSGALTSGVHTFPAVLQSSGLYSLSSVVTVPSSSLGTQTYICNVNHKPSNTKVDKKVEPKSCDK
notes: Three-chain format: Ly1630 heavy chain fused to Ly516 light chain; Ly1630 light chain; Ly516 VH-CH1
- EC50 (read off the curve) [1]: ~0.1 µg/mL

B2: Ly515 (bispecific antibody, human IgG2, kappa)
heavy: QVQLVQSGAEVKKPGASVKVSCKASGYTFAGFEMHWVRQAPGQGLEWMGAIDPKTGGTDYNQKFKDRVTMTRDTSISTAYMELSRLRSDDTAVYYCARDLGYFDVWGQGTLVTVSSASTKGPSVFPLAPCSRSTSESTAALGCLVKDYFPEPVTVSWNSGALTSGVHTFPAVLQSSGLYSLSSVVTVPSSNFGTQTYTCNVDHKPSNTKVDKTVERKCCVECPPCPAPPVAPSVFLFPPKPKDTLMISRTPEVTCVVVDVSHEDPEVQFNWYVDGVEVHNAKTKPREEQFNSTFRVVSVLTVVHQDWLNGKEYKCKVSNKGLPAPIEKTISKTKGQPREPQVYTLPPSREEMTKNQVSLTCLVKGFYPSDIAVEWESNGQPENNYKTTPPMLDSDGSFFLYSKLTVDKSRWQQGNVFSCSVMHEALHNHYTQKSLSLSPGGGGGSGGGGSGGGGSGGGGSNIQMTQSPSSLSASVGDRVTITCKAGQNVNNYLAWYQQKPGKAPKVLIFNANSLQTGVPSRFSGSGSGTDFTLTISSLQPEDFATYYCQQYNSWPTFGGGTKVEIKRTVAAPSVFIFPPSDEQLKSGTASVVCLLNNFYPREAKVQWKVDNALQSGNSQESVTEQDSKDSTYSLSSTLTLSKADYEKHKVYACEVTHQGLSSPVTKSFNRGEC
light: B1 light
chain: B1 chain
notes: as for B1
- EC50 (read off the curve) [1]: ~0.1 µg/mL

B3: Ly253-G2 (antibody, human IgG2, kappa, V domains shown)
VH: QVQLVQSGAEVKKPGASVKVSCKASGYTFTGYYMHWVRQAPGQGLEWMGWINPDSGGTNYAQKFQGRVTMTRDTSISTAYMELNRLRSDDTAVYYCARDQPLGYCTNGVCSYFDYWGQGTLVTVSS
VL: DIQMTQSPSSVSASVGDRVTITCRASQGIYSWLAWYQQKPGKAPNLLIYTASTLQSGVPSRFSGSGSGTDFTLTISSLQPEDFATYYCQQANIFPLTFGGGTKVEIKR
notes: also called anti-CD40 antibody
- EC50 (read off the curve) [2]: ~0.09 µg/mL

B4: Ly514 (bispecific antibody, human IgG2, kappa)
heavy: QVTLKESGPALVKPTQTLTLTCTFSGFSLSTSGTCVSWIRQPPGKALEWLATICWEDSKGYNPSLKSRLTISKDTSKNQAVLTMTNMDPVDTATYYCARREDSGYFWFPYWGQGTLVTVSSASTKGPSVFPLAPCSRSTSESTAALGCLVKDYFPEPVTVSWNSGALTSGVHTFPAVLQSSGLYSLSSVVTVPSSNFGTQTYTCNVDHKPSNTKVDKTVERKCCVECPPCPAPPVAPSVFLFPPKPKDTLMISRTPEVTCVVVDVSHEDPEVQFNWYVDGVEVHNAKTKPREEQFNSTFRVVSVLTVVHQDWLNGKEYKCKVSNKGLPAPIEKTISKTKGQPREPQVYTLPPSREEMTKNQVSLTCLVKGFYPSDIAVEWESNGQPENNYKTTPPMLDSDGSFFLYSKLTVDKSRWQQGNVFSCSVMHEALHNHYTQKSLSLSPGGGGGSGGGGSGGGGSGGGGSDIQMTQSPSSLSASVGDRVTITCRASQDIRSNLNWYQQKPGGAVKLLIYYTSRLHSGVPSRFSGSGSGTDYTLTISSLQPEDFATYFCQQSEKLPRTFGGGTKVEIRRTVAAPSVFIFPPSDEQLKSGTASVVCLLNNFYPREAKVQWKVDNALQSGNSQESVTEQDSKDSTYSLSSTLTLSKADYEKHKVYACEVTHQGLSSPVTKSFNRGEC
light: NIQMTQSPSSLSASVGDRVTITCKAGQNVNNYLAWYQQKPGKAPKVLIFNANSLQTGVPSRFSGSGSGTDFTLTISSLQPEDFATYYCQQYNSWPTFGGGTKVEIKRTVAAPSVFIFPPSDEQLKSGTASVVCLLNNFYPREAKVQWKVDNALQSGNSQESVTEQDSKDSTYSLSSTLTLSKADYEKHKVYACEVTHQGLSSPVTKSFNRGEC
chain: QVQLVQSGAEVKKPGASVKVSCKASGYTFAGFEMHWVRQAPGQGLEWMGAIDPKTGGTDYNQKFKDRVTMTRDTSISTAYMELSRLRSDDTAVYYCARDLGYFDVWGQGTLVTVSSASTKGPSVFPLAPSSKSTSGGTAALGCLVKDYFPEPVTVSWNSGALTSGVHTFPAVLQSSGLYSLSSVVTVPSSSLGTQTYICNVNHKPSNTKVDKKVEPKSCDK
notes: Three-chain format: Ly516 heavy chain fused to Ly1630 light chain; Ly516 light chain; Ly1630 VH-CH1
- EC50 (read off the curve) [3]: ~0.2 µg/mL
- EC50 (read off the curve) [1]: ~0.5 µg/mL
